# Experimental data from the nanobody polyreactivity screen of Harvey et al. (2022).
# Experiment: yeast display, Sf9 membrane polyspecificity reagent, FACS + sequencing; frameworks hold sequencing errors
# Procedure, shortened: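 Polyreactivity labels are assigned by the sorting gate from which each nanobody was recovered. The gates were low and high (top ~1%), set on anti-HA fluorescence for expression and streptavidin fluorescence for reagent binding. Before sorting, galactose-induced (36–48 hours) yeast display cells were stained for 1 hour at 4 °C with 10% biotinylated, detergent-solubilized Sf9 membrane reagent.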
sequence,measurement,value
QVQLVESGVCLVQAGGSLRLICAASGNIFYGYAMGWYRQAPGKESELVAAISTGGSTNYADSVKGRFTISRDNAKNTVYLQMNSLKPVDTAVYYCASDDPQQYGVRQLGYDSWGQVTQVTVSS,polyreactivity (PSR sort gate),low polyreactivity
QVQLVESGVCLVQAGGSLRLSCAATGFTLSTNALGWYRQEPGKESELVAVISGGDSTSYADSVKGRFTISRDNAKNTVYLQMNSLKPEETAVYYCAKVYRRYTSGYDYWGQGTQVTVSS,polyreactivity (PSR sort gate),high polyreactivity
QVQLVESGVCLVQAGGSLRLSCASSGRIFKIYMGWYRQAPGKERELVAAISSGGRTYYADSVKGRFTISRDNAKNTVYLQMNSLKPEDTAVYYCAAEGTYYFRYPGPEDYDYWGLGTQVTVSS,polyreactivity (PSR sort gate),high polyreactivity
QVQLVESGVCLVQAGGSLRLSSAASGRTLDQNTMGRYRQAPGKERELVASITYSGGITYYADSVKGRFTISSDNAKNTVYLQMNSLKPEATAVYYCAAQEHGTYDNILGEPLDYWGQGTQVTVSS,polyreactivity (PSR sort gate),low polyreactivity
QVQLVESGVCLVQAGRSLRLSCAASGRTFGYYAMGWYRQAPGKERELVAGITLSGGSTYYADSVKGRFTISRDNAKNTVYLQMNSLKPDDTAVYYCAARRRGRAGRDDYWGQGTQVTVSS,polyreactivity (PSR sort gate),high polyreactivity
QVQLVESGVGIVQAGGSHRLSCAASGRICVRNAMGWYRQAPGKERQLVAAISWSGGTNYADSVKGRFTISRDNAKNTVYLQMNSLKPEDTAVYYCAALSVWSYYTYYYWGQGTQVTVSS,polyreactivity (PSR sort gate),high polyreactivity
QVQLVESGVGIVQAGGSLRLSCAASGITFWRYAMRWYRQARGKERELVAAINSGGGTKYADSVQGRFTISRDNAKNTDYLQMNSLKPEDTAVYYCAAVSRYGWYDYCGQGTQVTVSS,polyreactivity (PSR sort gate),high polyreactivity
QVQLVESGVGLDKAGGSLRLISAASGRILWYNAMGLYRQAPGKEREFVARISISTASTYYADSVKGRFTISRDNAKNTVFLQMNSLKPEDTAVYYCAGKPWRTVPYYYWGQGTQVSVSS,polyreactivity (PSR sort gate),high polyreactivity
QVQLVESGVGLDQAGGSLRLSCAASGFTFYSNAMGWYRQAPGKERELVAAITGRGGRTYYADSVKGRFTISRDNAKNTVYLLMNSLKPEDTAVYYCAAVYHVSTWGGRYYFRQGYDYWGQGTQVTVSS,polyreactivity (PSR sort gate),high polyreactivity
QVQLVESGVGLDQAGGSLRLSCAASGSTFASYAMGWYRQAPGKERELVAAITNGGSTNYADSVKGRFTISRDNAKNTVYLLMNSLKPEDTAVYYCAAYDGFPRRYDYWGQGTQVTVSS,polyreactivity (PSR sort gate),low polyreactivity
QVQLVESGVGLLQAGGSLRLSCAASGFIFSFYAMGWYRQAPGKERELVAGISQSGGRTYYADSVKGRFTISRDNAKNNVFLQMNSLKPEDTAVYYCAAQWYYSLYVSGDYWGQGTQVTVSS,polyreactivity (PSR sort gate),high polyreactivity
QVQLVESGVGLVHAGGSLRLSCAASGITFDHYTMGWYRQAPGKEREFVAAITGSGVRTYYADSVKVRFTISRDNAKNTVYLQMNSLKPEVTAVYYCAAVWRYTGKYWGQGTQVTISS,polyreactivity (PSR sort gate),high polyreactivity
QVQLVESGVGLVHAGGSLRLSCAASGSTFYANTMGWYIQAPGKERELVAAISQSGGSTYYADSVKGRFSISRDNAKNTVYLQMNSLKPEDTAVYYCAARRLPRKERKLYYWGQGTQVTVSS,polyreactivity (PSR sort gate),high polyreactivity
QVQLVESGVGLVQAGGILRLSCAAYGTFGSYAMGWYRQAPGKERELVASISGTGGDTYYADSVKGRFTISRDNAKNTVYLQMNSLKPEDTAVYDCAARWSRYWYLGSWLYDYWGQGTQVSVSS,polyreactivity (PSR sort gate),high polyreactivity
QVQLVESGVGLVQAGGSHRLSCAASGSILAGNVMGWYRQAPGKERELVAAITRSGTSTYYADSVKGRFTISRDNAKNTVYLQMNSLKPEDTAVYYCNSVRRVGFRGRYTDGYWGQGTQVTVSS,polyreactivity (PSR sort gate),high polyreactivity
QVQLVESGVGLVQAGGSLRLICAASGSTFGVYAMGWYRQAPGKERELVARITSGGSTYYADSVKGRFTISRDNAKNTVYLQMNSLKPEDTAVYYCAAVYRRTRSWKFDYWGQGTQVTVSS,polyreactivity (PSR sort gate),high polyreactivity
QVQLVESGVGLVQAGGSLRLIWAASGRTFYRNVMGWYRQAPGKERELVAAISWSGGRTYYADSVKGRFTISRDNAKNTVYLQMNSLKPEDTAVYYCAARYRTLDGEVDYWGQGTQVTVSS,polyreactivity (PSR sort gate),high polyreactivity
QVQLVESGVGLVQAGGSLRLRCAASARIFGWYTMGWNRQSPGKERELVADINFGGSTYYADSVKGRFTISRDNAKNTVYLLMKSLKSEYTAVFYCNADYSVYIIADEYDYWGQGTQVTVSS,polyreactivity (PSR sort gate),low polyreactivity
QVQLVESGVGLVQAGGSLRLRCAASGITFGTYPMGWYRQAPGKEREFVAGYYADSVKGRFTISRDNAKNTVYLQMNSLKPEDTAVYYCAADYLYHDDVDYWGQGTQVTVSS,polyreactivity (PSR sort gate),low polyreactivity
QVQLVESGVGLVQAGGSLRLRCAASGSIFEGNGMGWYRQAPGKERELVASITRSGGSTYDADSVKGRFTISRDNAQNTVYVQMNSLKPEDTAVYYCAAKGTTYGLTIRWYPYLHGYNYWGQGTQVTVSS,polyreactivity (PSR sort gate),low polyreactivity
QVQLVESGVGLVQAGGSLRLSCAASGFTFRRYAMGWYRQAPGKERELVAAITSSGGNTYYADSVKGRFTISRDNAKNTVYLQMNSLKPEDTAVYYCAKRAFYSSSYDYWGQGTQVSVSS,polyreactivity (PSR sort gate),high polyreactivity
QVQLVESGVGLVQAGGSLRLSCAASGIIFPGYVMGWYRQAPGKERELVAAISSGGRTYYADSVKGRFTISRDNAKNTVSLQMNSLKPEDTAVYYCAAGGRARTYYYWGQGTQVTVSS,polyreactivity (PSR sort gate),high polyreactivity
QVQLVESGVGLVQAGGSLRLSCAASGIIFRSYAMGWYRQAPGKERELVAAITSSGGRTYYADSVKGRFTISRDNAKNTVYLQMNSLKPEDTAVYYCAAKTYQQQIVRPMYYWGQGTQVTVSS,polyreactivity (PSR sort gate),high polyreactivity
QVQLVESGVGLVQAGGSLRLSCAASGITFDYYAMGLYRQAPGKERELVAAIRKSGGSTYYADSVKGRFTISRDNAKNTVYLQMNSLKPEDTAVYYCAAGVRSPFRGGYYWGQGTQVTVSS,polyreactivity (PSR sort gate),high polyreactivity
QVQLVESGVGLVQAGGSLRLSCAASGITFPGYAMGWYRQAPGKERELVAVIRKSGTSTYYADSVKGRFTISRDNAKNTVYLQMNSLKPEDTAVYYCAAGGPSTLDDYWGQGTQVTVSS,polyreactivity (PSR sort gate),low polyreactivity
QVQLVESGVGLVQAGGSLRLSCAASGLIFRPYTMGWDRQAPGKERELVATITGSGASTNYADSVKGRFTISRDNAKNTLYLQMNSLKPEDTAVYYCKGRSYSRMYYWGQGTQVTVSS,polyreactivity (PSR sort gate),high polyreactivity
QVQLVESGVGLVQAGGSLRLSCAASGRIFAYNAMGWYRQAPGKERELVAAISSSDDDTYYADSVKGRFTISRDNAKNTVYLQMNSLKPEDTAGYYCAAEWDTDRLWAGPRGSLYDYWGQGTQVTVSS,polyreactivity (PSR sort gate),high polyreactivity
QVQLVESGVGLVQAGGSLRLSCAASGRIFAYYAMGWYRQAPGKERELVAAISSGGTTNYADSVKGRFTISRDNAKNTVYLQMNSLKPEDTAVYYCNADGWRRSRQYYYWGQGTQVTVSS,polyreactivity (PSR sort gate),low polyreactivity
QVQLVESGVGLVQAGGSLRLSCAASGRIFNRNAMGWYRQAPGKERELVAAISHSVGSTYADSVKGRFTLSRDNAKNTVYLQMNSLKPEDTAVYYCAAKYYFEWNSALDYWGQGTQVTVSS,polyreactivity (PSR sort gate),low polyreactivity
QVQLVESGVGLVQAGGSLRLSCAASGRIFRYYTMGRYRHAPGKERELVAAITKSGGRTYYADSVKGRFTISRDTANNTVYLQMNSLKPEDTAVYYCAARRLYWGQGTQVTVSS,polyreactivity (PSR sort gate),high polyreactivity
QVQLVESGVGLVQAGGSLRLSCAASGRIFSRYTMGWYRQAPGKERELVAAIRYSGGLTYYADSVKGRFTISRDNAKNTVYLQMNSLKPEDTAVYYCATQVYLGYDKLYGYWGQGTQVTVSS,polyreactivity (PSR sort gate),high polyreactivity
QVQLVESGVGLVQAGGSLRLSCAASGRIFTYYAMGWYRQAPGKERELVAVISSVGGTYYADSVKGRFTISRDNAKNTVYLQMNSLKPEDTAVYYCAVGKIWSRRSSTSRFGYWGQGTQVTVSS,polyreactivity (PSR sort gate),high polyreactivity
QVQLVESGVGLVQAGGSLRLSCAASGRSFGPYAMGWYSQAPGKERELVAAISSSGGSTYYADSVKGRFTISRDNAKNNVYLQMNSLKPEDTAVYYCATYFARGYNSWGQGTQVTVSS,polyreactivity (PSR sort gate),high polyreactivity
QVQLVESGVGLVQAGGSLRLSCAASGRTFGSNAMGWYRQAPGKERELVAAISRVGSTYYADSVKGRFTISRDNAKNTVYLQMNSLKPEDTAVYYCPYDYWGQGTQVTVSS,polyreactivity (PSR sort gate),low polyreactivity
QVQLVESGVGLVQAGGSLRLSCAASGRTFNSYAMGWYRQAPGKERELVATISSRGGNTFYADSLKGRCTISRDNAKNTVYLQMNSLKPEDTAVYYCAARRGVRKYPSAGYEYWGQGTQVTVSS,polyreactivity (PSR sort gate),high polyreactivity
QVQLVESGVGLVQAGGSLRLSCAASGRTFSRNAMGWYRQSPGKERELVATISRGGGITFYADSVKGRFTISRDNAKNNVYLQMKSLKPEDTAVYYCNADVRYVGLRRIVDYWGLGTQVTVSS,polyreactivity (PSR sort gate),high polyreactivity
QVQLVESGVGLVQAGGSLRLSCAASGRTFWSYAMGLYRQAPGKERELVAAISRGGSRTYYADSVKGRFTISRDNAKNTVYLQMNSLKPEDTAVYYCAADPTASGHFLGQVDYWGQGTQVTVSS,polyreactivity (PSR sort gate),high polyreactivity
QVQLVESGVGLVQAGGSLRLSCAASGSIFDPYAMGWYRQPPGKERELVAAIPYSVGGTTYYADSVKGRFTISRDTAKNTVYLQMNSLKPEHTAVNYCAAEWWGNPFDYWGQGTQVTVST,polyreactivity (PSR sort gate),high polyreactivity
QVQLVESGVGLVQAGGSLRLSCAASGSIFGLYAMGCYRQAPGKERELVAAISTSDTSTYYADSVKGRFTISRDNAKNTVYLQMTSLKQEDTAVYYCAADTYDNFDYSGQGTQVTVSS,polyreactivity (PSR sort gate),low polyreactivity
QVQLVESGVGLVQAGGSLRLSCAASGSPFRRNALGWYRQAPGKERELVAAITWRGTSTYYADSVKGRFTISRDNAKNTVYLQMNSLIPEDTAVYYFATSKSRLRYDYWGQGTQVTVSS,polyreactivity (PSR sort gate),high polyreactivity
QVQLVESGVGLVQAGGSLRLSCAASGSTFRYNAMVWYRQAPGKERELVAAITGSGDRTFYADSVKGRFTISRDNAKNTVYLQMNSLKPVDTAVYYCAARSRYPFSYGYYYWGQGTQVSVSS,polyreactivity (PSR sort gate),high polyreactivity
QVQLVESGVGLVQAGGSLRLSCAASGSTFTYYAMGWYRQAPGKESELVAAITASGTSTYYPDSVKGRFTISRDYAKNTVYLQMNSLKPEDTAVYYCAATRFKWTRIYPYYTGQGYNYWGQGTQVTVSS,polyreactivity (PSR sort gate),high polyreactivity
QVQLVESGVGLVQAGGSLRLSCAASGSTFWAYAMGWYRQAPGKERELVAAITTGGGRTFYADSVKGRFTISRDNAKNTVYLQMNSLKPEETAVYYFAAVSQSYRMYYWGQGTQVTVSS,polyreactivity (PSR sort gate),low polyreactivity
